This is an account of results in patent US20230051715A1 (MABWELL THERAPEUTICS, published 2023).

Broadly, the Kd is the equilibrium constant for the complex coming apart. One may read the koff as the rate constant with which the complex falls apart. One may read the kon as a measure of how fast the partners come together.

Assay [1] deals with T1, rat C1s (produced in house) (rat, UniProt Q6P6T1 16-688).
T1 construct: also called RaC1s
T1 sequence: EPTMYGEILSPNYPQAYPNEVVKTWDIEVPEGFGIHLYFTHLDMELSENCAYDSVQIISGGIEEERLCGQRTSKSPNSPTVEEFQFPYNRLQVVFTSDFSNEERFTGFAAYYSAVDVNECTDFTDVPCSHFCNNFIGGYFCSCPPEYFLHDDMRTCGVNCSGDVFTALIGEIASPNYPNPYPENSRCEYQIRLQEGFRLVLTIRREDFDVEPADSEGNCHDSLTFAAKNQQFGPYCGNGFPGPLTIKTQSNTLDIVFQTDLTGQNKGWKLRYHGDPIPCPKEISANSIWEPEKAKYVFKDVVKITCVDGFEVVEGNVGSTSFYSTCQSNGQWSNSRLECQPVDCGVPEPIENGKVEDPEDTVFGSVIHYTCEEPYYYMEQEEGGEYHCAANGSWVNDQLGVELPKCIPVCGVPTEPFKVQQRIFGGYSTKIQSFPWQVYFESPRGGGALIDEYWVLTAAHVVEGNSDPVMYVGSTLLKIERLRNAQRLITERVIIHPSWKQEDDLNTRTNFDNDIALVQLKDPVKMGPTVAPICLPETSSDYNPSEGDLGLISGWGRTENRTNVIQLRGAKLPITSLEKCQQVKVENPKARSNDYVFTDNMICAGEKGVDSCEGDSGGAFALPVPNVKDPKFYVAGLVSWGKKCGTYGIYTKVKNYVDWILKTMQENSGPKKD
The experiment in a line: BLI (Octet RED96e), antibody on AHC biosensor; C1s Species: Rat; R^2 0.9718. The text has this: At last, analyte was dissociated in 1×KB for 360 sec. Data analysis was done using OCTET® Data Analysis HT Software (Sartorius AG).

Assay [2] deals with T2, human C1s proenzyme (CompTech A103) (human, UniProt P09871 16-688).
T2 construct: also called proenzyme human C1s (native C1s)
T2 sequence (looked up): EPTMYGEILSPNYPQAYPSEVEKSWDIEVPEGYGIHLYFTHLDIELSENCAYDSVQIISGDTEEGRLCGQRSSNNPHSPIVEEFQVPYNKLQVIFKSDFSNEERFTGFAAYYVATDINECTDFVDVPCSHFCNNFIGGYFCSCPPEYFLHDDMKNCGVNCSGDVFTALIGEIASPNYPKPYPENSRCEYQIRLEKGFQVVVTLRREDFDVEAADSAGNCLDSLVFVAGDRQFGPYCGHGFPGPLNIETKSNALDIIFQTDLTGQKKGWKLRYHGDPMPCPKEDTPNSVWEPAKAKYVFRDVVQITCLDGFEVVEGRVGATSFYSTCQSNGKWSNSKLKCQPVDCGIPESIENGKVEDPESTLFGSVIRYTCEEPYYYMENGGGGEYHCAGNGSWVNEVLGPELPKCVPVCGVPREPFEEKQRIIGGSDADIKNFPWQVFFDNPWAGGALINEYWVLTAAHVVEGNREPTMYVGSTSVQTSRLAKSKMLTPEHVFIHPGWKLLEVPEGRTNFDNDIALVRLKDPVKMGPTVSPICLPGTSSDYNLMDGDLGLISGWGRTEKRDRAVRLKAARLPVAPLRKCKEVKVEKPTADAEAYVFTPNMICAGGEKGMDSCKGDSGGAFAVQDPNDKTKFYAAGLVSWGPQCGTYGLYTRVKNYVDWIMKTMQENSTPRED
Nature of the assay: BLI (Octet RED96e), antibody on AHC biosensor; HuC1s Form: Proenzyme; R^2 0.9994. On the procedure: (§1) Bio-Layer Interferometry technology was used for anti-C1s antibody affinity measurement and binding kinetics determinations with OCTET® RED96e system (Sartorius AG). Pre-hydrated Anti-Human IgG Fc Capture (AHC) biosensors were first equilibrated in 1×KB (Kinetic Buffer, 1×PBS pH 7.4+0.02% Tween-20+0.1% BSA) for 120 sec for the first baseline, followed by loading with […] anti-C1s antibody (2-7, FIG. 3A; 2-8, FIG. 3B; hz2-7(H1L2), FIG. 3C; hz2-8(H1L2 G80A/T82A, FIG. 3D) onto AHC biosensors for 240 sec. Then, the second baseline signal was established for 120 sec before association with various concentrations of active human C1s (CompTech A104) for 240-360 sec. At last, analyte was dissociated in 1×KB for 360 sec. Anti-C1s antibodies 2-7 and 2-8 were also analyzed against human C1s proenzyme (CompTech A103) (data not shown). Data analysis was carried out using OCTET® Data Analysis HT Software (Sartorius AG). KD, kₒₙ, koff and R² values were calculated for each antibody and target combination, as summarized in FIG. 3E showing high affinity binding with KD values in the low nanomolar to picomolar range.
A general note: BLI is a label-free optical method that tracks binding on a fibre tip over time.

The target of assay [3] is T3, active human C1s (CompTech A104 C1s Enzyme) (human, UniProt P09871 16-688).
T3 construct: also called human active C1s; active C1s protein
T3 sequence (looked up): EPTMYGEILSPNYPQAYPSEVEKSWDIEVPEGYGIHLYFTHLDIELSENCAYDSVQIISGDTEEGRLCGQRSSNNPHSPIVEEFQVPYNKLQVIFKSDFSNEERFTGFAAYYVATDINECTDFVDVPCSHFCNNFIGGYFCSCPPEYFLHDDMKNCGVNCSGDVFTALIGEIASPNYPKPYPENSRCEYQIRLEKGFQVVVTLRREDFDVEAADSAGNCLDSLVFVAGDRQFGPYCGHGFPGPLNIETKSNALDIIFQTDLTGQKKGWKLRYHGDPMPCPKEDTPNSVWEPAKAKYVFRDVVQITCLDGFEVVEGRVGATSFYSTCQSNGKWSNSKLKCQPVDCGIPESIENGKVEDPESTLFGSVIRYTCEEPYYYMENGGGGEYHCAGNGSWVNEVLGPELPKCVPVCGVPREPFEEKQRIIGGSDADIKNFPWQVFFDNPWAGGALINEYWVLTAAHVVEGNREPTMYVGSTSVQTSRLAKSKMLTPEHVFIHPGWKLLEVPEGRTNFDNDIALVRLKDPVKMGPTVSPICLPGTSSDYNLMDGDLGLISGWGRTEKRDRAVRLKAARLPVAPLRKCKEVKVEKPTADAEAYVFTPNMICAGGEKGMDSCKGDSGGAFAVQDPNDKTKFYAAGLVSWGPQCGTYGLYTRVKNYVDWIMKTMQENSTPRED
The experiment in a line: BLI (Octet RED96e), antibody on AHC biosensor; HuC1s Form: Active; R^2 0.9994. On the procedure:
as §1

Assay [4] addresses T2, human C1s proenzyme (CompTech A103). The experiment in a line: BLI (Octet RED96e), antibody on AHC biosensor; HuC1s Form: Proenzyme; R^2 0.9990. Here is the method:
as §1

B1: Anti-C1s antibody hz2-8 (H1L2 G80A/T82A) (antibody, V domains shown)
VH: QVQLVQSGAEVKKPGASVKVSCKASGFNIKEYYMHWVRQAPEQGLEWMGWIDPENADAIYAQKFQGRVTITADTSTNTAYMELSSLRSEDTAVYYCARSRLFFAYWGQGTLVTVSS
VL: DIQMTQSPKSLSASVGDRVTITCRASQDVRTALDWYQQKPGQSPKLLIYSASYRYSGVPSRFSGSGSGTDFTLTISSLQPEDFATYYCQQQYTTPYTFGQGTKLEIKR
notes: Humanized variant with G80A and T82A in HC CDR2 (already in the entry), human IgG1 / kappa
For B1, in assay [1], the Kd was determined as 16 nM, the koff came to 0.0012 s⁻¹ and the kon came to 75000 M⁻¹ s⁻¹.

B2: Anti-C1s antibody 2-7 (antibody, human IgG1, kappa, V domains shown)
VH: EVKLEESGGGLVPPGGSMKLSCVASGFTFSNYFMNWVRQSPEKGLEWVAEIRLKFTNYATHYAESVEGRFTISRDDSKSSVYLQMNNLRAEDTGIYYCTRDYGSRNGYFDYWGQGTTLTVSS
VL: DIVMTQAAPSVPVTPGESVSISCRSSKSLLHSNGNTFLYWFLQRPGQSPQLLIYRMSNLASGVPDRFSGSGSGTAFTLRVSRVEAEDVGIYYCMQHLEYPYTFGGGTKLEIKT
notes: the HC/LC entries may hold it too; also called clone 2-7
As for B2, in assay [2], the Kd came out at 0.14 nM, the koff was 4.8e-05 s⁻¹ and the on-rate constant (kon) came to 350000 M⁻¹ s⁻¹. Further, in assay [3], the Kd was found to be 0.14 nM, the dissociation rate constant (koff) amounted to 4.8e-05 s⁻¹ and the kon came to 350000 M⁻¹ s⁻¹.

B3: Anti-C1s antibody 2-8 (antibody, V domains shown)
VH: EVQLQQSGAELVRPGALVKLSCKASGFNIKEYYMHWVKQRPEQGLEWIGWIDPENGDTIYDPKFQGKASITADTSSNTAYLQLSSLTSEDTAVYYCARSRLFFAYWGQGTLVTVSA
VL: DIVMTQSHKFMSTSVGDRVSFTCKASQDVRTAVDWYQQKPGQSPKLLIYSASYRYTGVPDRFTGTGSGTDFTFTISSVQAEDLAVYFCQQQYTTPYTFGGGTKLEIKT
notes: the HC/LC entries may hold it too; also called clone 2-8
Turning to B3, in assay [4], the dissociation constant (Kd) came out at 0.49 nM, the koff is 0.00012 s⁻¹ and the kon worked out at 250000 M⁻¹ s⁻¹.
